B1: JN106 (antibody, V domains shown)
VH: EVQLVESGGGLVQPGGSLRLSCAASGFTFSENWMSWVRQAPGKGLEWVGNIKQDASEKYFVDSVKGRFTISRDNAKNSLYLQMDSLRAEDTAVYFCARWGYSNSYYYIDCWGQGTLVTVSS
VL: QAVVTQEPSFSVSPGGTVTFTCGLTSGSVSASNHPSWYQQTPGQAPRTLMYGTNIRSSGVPDRFSGSILGNKAALTITGAQADDECDYYCVLYIGDGVWVFGGGTKLTVL
B2: JN140 (antibody, V domains shown)
VH: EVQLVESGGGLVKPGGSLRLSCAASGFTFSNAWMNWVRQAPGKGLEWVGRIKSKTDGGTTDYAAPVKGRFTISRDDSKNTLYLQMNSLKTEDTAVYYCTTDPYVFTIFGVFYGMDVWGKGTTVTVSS
VL: QSALTQPASVSGSPGQSITISCTGTSSDVGSYNLVSWYQQHPGKAPKLMIYEVSKRPSGVSNRFSGSKSGNTASLTISGLQAEDEADYYCCSYAGSSTHHWVFGGGTKLTVL
B3: JN131 (antibody, V domains shown)
VH: EVQLVESGGGLVKPGGSLRLSCAASGFTFNSYSMNWVRQAPGKGLEWVSSISSSSNFIYYADSVKGRFTISRDNAKNSLYLQMNSLRAEDTAMYYCARDPGYRSSWFEVYYFDYWGPGTLVTVSS
VL: B2 VL with M49V, S54T, A94G, S97T, H99S, H100P, W101Y, G105T, L109V
B4: JN130 (antibody, V domains shown)
VH: QVQLQESGPGLVKPSQTLSLTCTVSGGSISSGDYYWSWIRQPPGKGLEWIGYIYYSGSTYYNPSLKSRVTISVDTSKNQFSLKLSSVTAADTAVYYCARVLRFYDNIWENYRLPRYFDYWGQGTLVTVSS
VL: QSALTQPRSVSGSPGQSVSISCTGTSSDVGGSEYVSWYQQHPGKAPKLMIYDVNQRPSGVPARFSGSKSGNTASLTISGLQAEDEADYYCCSYAGTYNFEVFGGGTKLSVL
B5: JN133 (antibody, V domains shown)
VH: QLQLQESGPGLVKPSETLSLTCTVSGGSISSGSNYWGWIRQPPGKGLEWIGTIYYSGATYFSPSLKNRITISVDTSKNQFSLRLSSVIAADTAVYYCARLPFQNYYFYGMDVWGKGTTVTVSS
VL: SYELTQPPSVSVSPGQTARITCSGDVLPKQYAYWYQQKPGQAPVLVISKDSERPSGIPERFSGSSSGTTVTLTISGVQGEDEADYHCQSADSSGTWVFGGGTKLTVL
B6: JN145 (antibody, V domains shown)
VH: QVQLVQSGAEVKKPGASVKVSCKASGYTFTSYYMHWVRQAPGQGLEWMGIINPSGGSTSYAQKFQGRVTMTRDTSTSTVYMELSSLRSEDTAVYYCARGESDDYVWGSYRYTNNWFDPWGQGTLVTVSS
VL: not shown
B7: JN142 (antibody, V domains shown)
VH: QVQLVQSGAEVKKPGASVKVSCKASGYTFTSYDINWVRQATGQGLEWMGWMNPNSGNTGYAQKFQGRVTMTRNTSISTAYMELSSLRSEDTAVYYCARVLAPYDYVWGSYRYDNWFDPWGQGTLVTVSS
VL: QSVLTQPPSVSAAPGQKVTISCSGSSSNIGNNYVSWYQQLPGTAPKLLIYDNNKRPSGIPDRFSGSKSGTSATLGITGLQTGDEADYYCGTWDSSLSALFGGGTKLTVL
B8: JN144 (antibody, V domains shown)
VH: QVQLVQSGPEVKKPGASVKVSCKASDYTFTSYDIIWVRQAPGQGLEWMGWISTHNGNTNYAQELQGRVTMTRETSTSTAHMELRSLRSDDTAVYYCARGPNRYLRLLEWSIPADWFFDLWGRGTLVTVSS
VL: EIVLTQSPGTLSLSPGDRATLSCRASQSVPSTSIAWYQQKPGQAPRLLFHGAASRAIGIPDRFSGSGSGTDFTLTISRLEPEDSAVYYCQHCGDSPPLLTFGPGTKVDIK
B9: JN141 (antibody, V domains shown)
VH: EVQLVESGGGLVQPGGSLRLSCAASGFTFSSYSMNWVRQAPGKGLEWVSYISSSSSTISYADSVKGRFTISRDNAKNSLYLQMNSLRAEDTAVYYCASGKGVGFDYWGQGTLVTVSS
VL: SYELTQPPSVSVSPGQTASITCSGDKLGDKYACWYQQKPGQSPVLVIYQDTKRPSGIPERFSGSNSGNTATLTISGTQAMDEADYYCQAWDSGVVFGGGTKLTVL
B10: JN112 (antibody, V domains shown)
VH: QVQLQESGPGLVKPSQTLSLTCTVSGGSISSGDYYWSWIRQPPGKGLEWIGYIYYSGSTYYNPSLKSRVTISVDTSKNQFSLKLSSVTAADTAVYYCAREGTIFGEPFDYWGQGTLVT
VL: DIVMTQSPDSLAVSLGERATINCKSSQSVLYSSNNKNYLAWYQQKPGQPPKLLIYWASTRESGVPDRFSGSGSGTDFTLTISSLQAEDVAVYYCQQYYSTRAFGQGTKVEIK
B11: JN006 (antibody, V domains shown)
VH: VQLVESGGGVVQPGRSLRLSCAASGFTFSNYVMHWVRQAPGKGLEWVAVMSSDGSIKYYADSVKGRFTVSRDNSKNTLYLQMNSLRPEDTAVYYCARGGRYSGSHTGDAFDIWGQGTMVTVSS
VL: B5 VL with V26A, K29N, Q30R, A32S, S48F, G79A, H86Y
B12: JN011 (antibody, V domains shown)
VH: VQLVESGGGVVQPGRSLRLSCAASGFTFSSYAMHWVRQAPGKGLEWVAVISYDGSNKYYADSVKGRFTISRDNSKNTLYLQMNSLRAEDTAVYYCAGSLGEEYYYYYYGMDVWGQGTTVTVSS
VL: NFMLTQPHSVSESPGKTVTISCTGSSGSIASNYVQWYQQRPGSAPTTVIYEDNQRPSGVPDRFSGSIDSSSNSASLTISGLKTEDEADYYCQSYDSSNWVFGGGTKLTVL
B13: JN231 (antibody, V domains shown)
VH: VQLVESGGGVVQPGRSLRLSCAASGFTFSSYGMHWVRQAPGKGLEWVAVISYDGSNKYYADSVKGRFTISRDNSKNTLYLQMNSLRAEDTAVYYCAKDSRYYDFWSGYLGPDEYYYYYYMDVWGKGTTVTVSS
VL: not shown
B14: JN108 (antibody, V domains shown)
VH: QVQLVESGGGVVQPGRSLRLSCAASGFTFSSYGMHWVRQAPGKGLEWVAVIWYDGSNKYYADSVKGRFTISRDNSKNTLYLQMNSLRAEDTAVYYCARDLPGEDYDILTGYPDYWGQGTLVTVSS
VL: QSALTQPASVSGSLGQSITISCTGTSSDVGSYNLVSWYQQHPGKVPKLMIYEANKRASGVSDRFSGSKTDNTASLTISGLQAEDEADYYCCSYAGSRTHVIFGGGTKLTV
B15: JN111 (antibody, V domains shown)
VH: QVQLQESGPGLVRPSETLSLTCTVSGASITSYFWTWIRQAPGKGLEWIGYIYYSGSTNYNPSLKSRGTISVDTSKNQFSLKLSSVTAADTAVYYCARGMSDVVIVPAALSFGYDDAYYYYYYMDVWGKGTTVTVSS
VL: B14 VL
B16: JN024 (antibody, V domains shown)
VH: QVQLQESGPKLMKPSQTLSLTCAVSGASIRSGGYYWSWIRQHPGKGLEWIGYIYYSGSTYYNPSLKSRATISVDTSKNQFSLKLTSVTAADTAVYYCARAGRWFGELFRGGGYFDYWGLGTLVTVSS
VL: AIRMTQSPSSLSASVGDRVTITCQASQDIGIFLNWYQQKSGEAPKLLIYDASNLETGVPSRFSGSGSGTDFIFIIRNLQPEDSATYYCQQHNHLPRVTFGPGTKVDIK
B17: JN019 (antibody, V domains shown)
VH: VQLVESGGGVVQPGRSLRLSCAASGFTFSNYGMHWVRQAPGKGLEWVAFISYDANHKYSTNSVKGRFTISRDNSKNTLYLQMNSLRTEDTAVYYCASMDGLHPGTAQFYGMDVWGQGTTVTVSS
VL: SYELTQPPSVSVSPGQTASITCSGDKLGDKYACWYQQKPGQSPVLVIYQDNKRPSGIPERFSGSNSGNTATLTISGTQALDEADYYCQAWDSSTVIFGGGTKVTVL
B18: JN021 (antibody, V domains shown)
VH: QLQLQESGPGLVKPSETLSLTCTVSGGSIRSRGYYWGWIRQPPGKGLEWIGSIDYSGSTYYNPSLKSRVTISVDTSKNQFSLKLNSVTAADTAVFYCASSADTYYDILTGYYKGWYIDYWGQGTLVTVSS
VL: LTQPRSVSGSPGQSVTISCAGTSSDVGGYNYVSWYQQHPGKAPKLMIFDVTKRPSGVPDRFSGSKSGNTASLTISGLQAEDDADYYCCSYAGSYTYWVFGGGTKLTVL
B19: JN020 (antibody, V domains shown)
VH: EVQLVESGGDLVRRGESLRLSCAASGFTFSNHWMTWVRQAPGRGLEWVANIEGDGSDKYYVDSVKGRFTISRDNARNLLFLYMNALRGDDTAIYYCARHSATYHGLDQWGQGTLVTVSS
VL: LTQPRSVSGSPGQSVTISCTGTSSDVGGYIFVSWYQRHPGKAPKLILFHVDKRPSGVPDRFSGSRSGNTASLTISGLQTEDEADYDCYSFAGTIWMFGGGTRLTVL
B20: JN220 (antibody, V domains shown)
VH: VQLVESGGGVVQPGRSLRLSCAASGFTFSSYTMHWVRQAPGKGLEWVAVISYDGSNKYYADSVKGRFTISRDNSKNTLYLQMNSLRAEDTAVYYCAISSGWYSMSGAFDIWGQGTMVTVSS
VL: QSALTQPRSVSGSPGQSVTISCTGTSSDVGGYNYVSWYQQHPGKAPKLMIYDVSKRPSGVPDRFSGSKSGNTASLTISGLQAEDEADYYCCSYAGSYRVFGTGTKVTVL

Substitutions are numbered along the chain they refer to.

The target in one assay is SARS-CoV-2 Wuhan-Hu-1 NTD (SARS-CoV-2, UniProt P0DTC2 14-307). Briefly: cell-based or functional assay.
On to B1, for which the “neutralisation IC50, WT (293TAce2)” value was over 1 µg/mL.
On to B2, for which the “neutralisation IC50, WT (293TAce2)” value is over 1 µg/mL.
Still for that read-out and setting: the figure for B3 is over 1 µg/mL.
In the case of B4, the “neutralisation IC50, WT (293TAce2)” value is over 1 µg/mL.
B5: the “neutralisation IC50, WT (293TAce2)” value was over 1 µg/mL.
On to B6, for which the “neutralisation IC50, WT (293TAce2)” value is 0.688 µg/mL.
The same measure, in the same setting: in the case of B7 it was over 1 µg/mL; in that of B8, over 1 µg/mL; in that of B9, over 1 µg/mL.

In a further assay the target is SARS-CoV-2 Wuhan-Hu-1 NTD (SARS-CoV-2, UniProt P0DTC2). The assay can be described thus: cell-based or functional assay.
Take B10: the “neutralisation IC50, WT (293TAce2)” value is over 1 µg/mL.
B11: the “neutralisation IC50, WT (293TAce2)” value is over 1 µg/mL.
The same measure, in the same setting: the figure for B12 is over 1 µg/mL; for B13 it is over 1 µg/mL; for B14 it is over 1 µg/mL.
Turning to B15, the “neutralisation IC50, WT (293TAce2)” value is over 1 µg/mL.
With B16, the “neutralisation IC50, WT (293TAce2)” value is over 1 µg/mL.
Take B17: the “neutralisation IC50, WT (293TAce2)” value turned out to be 0.0345 µg/mL.
Take B18: the “neutralisation IC50, WT (293TAce2)” value is over 1 µg/mL.
In the case of B19, the “neutralisation IC50, WT (293TAce2)” value is over 1 µg/mL.
For the molecule B20, the “neutralisation IC50, WT (293TAce2)” value is over 1 µg/mL.

For the origin of these results see publication PMC9253517 (The Journal of Experimental Medicine, 2022).
